The subject of data set [1] is patient with adult periodontitis. Briefly: Treatment of patient with periodontal disease prior to dental implant therapy. The following applies: person, 20 μg once-daily subcutaneous for 3 months prior to implant surgery. The format is in vivo, human. From the text: A person presents with a history of adult periodontitis. The patient has experienced significant alveolar bone loss confirmed radiographically, and has a number of tooth sites with pocket probing depth measurements of about 7 mm. The patient has discussed with their dentist possible extraction of severely-affected teeth and their replacement with dental implants, but the prospects for success are diminished in view of the bone loss that has occurred. Standard periodontal care is provided, including scaling and root planning, and those teeth with poor prognosis are extracted. Prior to implant surgery, the patient is administered 20 μg of hPTH(1-34) once-daily by subcutaneous injection for 3 months prior to implant surgery.

For data set [2], the system named is systemic bone loss associated with osteoporosis. The conditions noted are these: R. M. Neer et al., NEJM 2001; cited from earlier work.

With `CC[C@H](C)[C@H](NC(=O)[C@H](CCC(=O)O)NC(=O)[C@H](CO)NC(=O)[C@@H](NC(=O)[C@@H](N)CO)C(C)C)C(=O)N[C@@H](CCC(N)=O)C(=O)N[C@@H](CC(C)C)C(=O)N[C@@H](CCSC)C(=O)N[C@@H](Cc1cnc[nH]1)C(=O)N[C@@H](CC(N)=O)C(=O)N[C@@H](CC(C)C)C(=O)NCC(=O)N[C@@H](CCCCN)C(=O)N[C@@H](Cc1cnc[nH]1)C(=O)N[C@@H](CC(C)C)C(=O)N[C@@H](CC(N)=O)C(=O)N[C@@H](CO)C(=O)N[C@@H](CCSC)C(=O)N[C@@H](CCC(=O)O)C(=O)N[C@@H](CCCN=C(N)N)C(=O)N[C@H](C(=O)N[C@@H](CCC(=O)O)C(=O)N[C@@H](Cc1c[nH]c2ccccc12)C(=O)N[C@@H](CC(C)C)C(=O)N[C@@H](CCCN=C(N)N)C(=O)N[C@@H](CCCCN)C(=O)N[C@@H](CCCCN)C(=O)N[C@@H](CC(C)C)C(=O)N[C@@H](CCC(N)=O)C(=O)N[C@@H](CC(=O)O)C(=O)N[C@H](C(=O)N[C@@H](Cc1cnc[nH]1)C(=O)N[C@@H](CC(N)=O)C(=O)N[C@@H](Cc1ccccc1)C(=O)O)C(C)C)C(C)C` [hPTH(1-34), human PTH(1-34)], the “complications post placement of the implants” value in data set [1] is given as “No complications”.

B1: parathyroid hormone (peptide, UniProt P01270 32-115, looked up)
Parathyroid hormone: SVSEIQLMHNLGKHLNSMERVEWLRKKLQDVHNFVALGAPLAPRDAGSQRPRKKEDNVLVESHEKSLGEADKADVNVLTKAKSQ
modifications: Parathyroid hormone
B1: in data set [2], the BMD entry is listed as “increases BMD”; the “risk of vertebral and non-vertebral bone fracture” value was “reduces the risk of vertebral and non-vertebral bone fracture”.

These data come from patent publication US20080305187A1, “Use of Parathyroid Hormone for Treating Periodontal Disease and for Other Dental Applications” (priority 2005, published 2008).
